Results taken from patent US20230272099A1 (Chugai, published 2023).
Where a chain is given by its changes, count along the chain named.

B1: dBBAT053-P253 (antibody, human IgG1, lambda, V domains shown)
VH: EVQLVESGGDLVKPGGGLRLSCAASGFTFSTFTMNWVRQAPGKGLEWVSSISSRSNYIYYADSVKGRFTISRDNAKNSLYLQMNSLRAEDTAVYYCARFGLKNEMNWVFDYWGQGTLVTVSS
VL: QSALTQPPSASGSPGQTVTISCTGTSSDVGFYNYVSWYQQHPGKAPKLMIYEGSKKPSGVPDRFSGSKSGNTASLTVSGLQAEDEADYFCSVYSYIYYVLFGGGTKLTVLG
B2: dBBAT007-P253 (antibody, human IgG1, lambda, V domains shown)
VH: B1 VH with T31G, F32Y, I58A, Y59H, E104F
VL: B1 VL with E52G, G53T, K56R, V92S, S94A, I96D, Y97A, Y98Q, V99L, L100V
B3: dBBAT134-P253 (antibody, human IgG1, lambda, V domains shown)
VH: B1 VH with T31S, F32Y, I58A, Y59D, F99Y, L101A
VL: B1 VL with S27T, G53V, K56R, V92S, S94T, I96D, Y97Q, Y98Q, V99L, L100M
B4: A375-SCF057aPh/B167-Lamlib (antibody, human IgG1, lambda)
heavy: EVQLVESGGGLVKPGGSLRLSCAASGFTFSTFTMNWVRQAPGKGLEWVSSISSKSTYIEYADSFKVRFTISRDNAKNSLYLQMNSLRAEDTAVYYCARYGAKNFLNWVFDYWGQGTLVTVSSASTKGPSVFPLAPSSKSTSGGTAALGCLVKDYFPEPVTVSWNSGALTSGVHTFPAVLQSSGLYSLSSVVTVPSSSLGTQTYICNVNHKPSNTKVDKRVEPKSCDKTHTCPPCPAPELWNGPSVFLFPPKPKDTLMISRTPEVTCVVVDVSDEDPEVKFNWYVDGVEVHNAKTKPREEQYNSTYRVVSVLTVLHRDWLNGKEYKCKVSNKALPKPIEKTISKAKGQRREPQVYTLPPSREEMTKNQVSLTCLVKGFYPSDIAVEWESNGQPENNYKTTPPVLDSDGSFFLYSKLTVDKSRWQQGNVFSCSVMHEALHNHYTQKSLSLSP
light: QSALTQPPSASGSPGQTVTISCTGTRYDVGYYEYVSWYQQHPGKAPKLMIYETSKRLSGVPDRFSGSKSGNTASLTVSGLQAEDEADYYCSSYRYEHQVSFGGGTKLTVLGQPKAAPSVTLFPPSSEELQANKATLVCLISDFYPGAVTVAWKADSSPVKAGVETTTPSKQSNNKYAASSYLSLTPEQWKSHRSYSCQVTHEGSTVEKTVAPTECS
B5: A375-SCF059aPh/B167-Lamlib (antibody, human IgG1, lambda)
heavy: B4 heavy with R348P, D418K
light: B4 light
notes: copies: 2 + 2
B6: A375-TT16/B167-Lamlib (antibody, human IgG1, lambda)
heavy: EVQLVESGGGLVKPGGSLRLSCAASGFTFSTFTMNWVRQAPGKGLEWVSSISSKSTYIEYADSFKVRFTISRDNAKNSLYLQMNSLRAEDTAVYYCARYGAKNFLNWVFDYWGQGTLVTVSSASTKGPSVFPLAPSSKSTSGGTAALGCLVKDYFPEPVTVSWNSGALTSGVHTFPAVLQSSGLYSLSSVVTVPSSSLGTQTYICNVNHKPSNTKVDKKVEPKSCDKTHTCPPCPAPEYLGDDSVFLFPPKPKDVLMISRTPEVTCVVVDVSHEDPEVKFNWYVDGVEVHNAKTKPREEQYNSTYRVVSVLPVLHQDWLNGKEYKCKVSNKALPKPIEKTISKAKGQPREPQVYTLPPSREEMTKNQVSLTCLVKGFYPSDIAVEWESNGQPENNYKTTPPVLDSDGSFFLYSKLTVDKSRWQQGNVFSCSVMHEALHNHYTQKSLSLSP
light: B4 light
notes: copies: 2 + 2
B7: A375-SCF059a/B167-Lamlib (antibody, human IgG1, lambda)
heavy: B4 heavy with W240L, R348P, D418K
light: B4 light
notes: copies: 2 + 2
B8: A375-SCF060a/B167-Lamlib (antibody, human IgG1, lambda)
heavy: B4 heavy with Q300L, K331T, R348P
light: B4 light
notes: copies: 2 + 2
B9: A375-TT14/B167-Lamlib (antibody, human IgG1, lambda)
heavy: B6 heavy with D242G, V269I
light: B4 light
notes: copies: 2 + 2

Each binder was assayed against T1, biotinylated Fc-fused monkey CD137 (monkey, biotin on the AviTag) (assay: ELISA, 1 mM ADP, 0.156 ug/mL).
T1 construct: also called cyCD137-Fc-BAP
T1 sequence (chain, as listed by the source limits assumed): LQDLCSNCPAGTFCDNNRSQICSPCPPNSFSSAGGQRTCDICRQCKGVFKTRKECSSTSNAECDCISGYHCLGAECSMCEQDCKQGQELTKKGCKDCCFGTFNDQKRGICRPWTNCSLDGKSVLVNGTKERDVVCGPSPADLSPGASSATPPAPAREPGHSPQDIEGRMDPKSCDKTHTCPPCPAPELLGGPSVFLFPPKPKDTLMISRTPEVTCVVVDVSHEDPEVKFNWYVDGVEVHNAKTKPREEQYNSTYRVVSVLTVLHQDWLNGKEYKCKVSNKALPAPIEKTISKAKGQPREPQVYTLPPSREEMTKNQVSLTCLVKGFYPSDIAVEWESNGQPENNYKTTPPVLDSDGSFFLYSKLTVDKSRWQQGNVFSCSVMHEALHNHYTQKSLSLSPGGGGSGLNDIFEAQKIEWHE
Set-up: reference not given here
Procedure: (§1) The obtained antibodies were evaluated for binding to monkey CD137 by ELISA. The cyCD137-Fc-BAP prepared in Reference Example 1 was immobilized on Streptawell microtiter plates. After the unbound antigen was removed from the plates by washing each well of the plates with the wash buffer, the wells were blocked with 150 μL of a blocking buffer (TBS with 2% BSA) for 1 hour or more. The blocking buffer was removed from each well, and 100 μL of the purified antibodies diluted in TBS with a final concentration of 1 mM ADP, or TBS with a final concentration 1 mM ADP was added to each well. The plate to which the antibody was added was shaken at 600 rpm for 1 hour. The AP-conjugated anti-human lambda antibodies (BETHYL) diluted in TBS with a final concentration of 1 mM ADP were added to each well after washing with a wash buffer (TBS with 0.1% Tween20) containing a final concentration of 1 mM ADP. After incubation for one hour and washing with a wash buffer containing a final concentration of 1 mM […], BluePhos phosphate substrate (KPL) was added. Color development was measured by absorbance at 600 nm. Samples with a concentration-dependent increase in the absorbance ratio can be said to be bound to monkey CD137.
B1 gave an absorbance ratio of 1. With B2 the absorbance ratio was 22. B3 was tested, and the absorbance ratio was 2.2.

These binders were tested against T1, biotinylated Fc-fused monkey CD137 (assay: ELISA, 1 mM ADP, 0.625 ug/mL).
Set-up: reference not given here
Procedure: as §1
B1 was tested, and the absorbance ratio was 2.3. B2 showed an absorbance ratio of 29.2. B3 was tested, and the absorbance ratio was 5.8.

Each binder was assayed against T1, biotinylated Fc-fused monkey CD137 (assay: ELISA, 1 mM ADP, 0.039 ug/mL).
Set-up: reference not given here
Procedure: as §1
In the case of B1, the absorbance ratio is reported as 0.7. With B2 the absorbance ratio was 0.7. For B3, the absorbance ratio was 1.2.

What follows are binders tested against T2, human FcgRIIIa V158 extracellular domain (human, UniProt P08637 17-208) (assay: SPR 25C).
T2 construct: extracellular domain; also called hFcgRIIIaV
T2 sequence (P08637 17-208 F176V): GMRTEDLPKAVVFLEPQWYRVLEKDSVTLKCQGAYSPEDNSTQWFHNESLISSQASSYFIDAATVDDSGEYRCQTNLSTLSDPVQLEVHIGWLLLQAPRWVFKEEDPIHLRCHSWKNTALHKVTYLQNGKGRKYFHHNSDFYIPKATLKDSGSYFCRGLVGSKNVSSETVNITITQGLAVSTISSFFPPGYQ
In the case of B4, the “binding per 1RU antibody” value is reported as 0.0005 RU and the “relative binding (A375-G1T3/B167-Lamlib=1)” value (from here on “relative binding”) is reported as 0.01. In the case of B5, the “binding per 1RU antibody” value is reported as 0.0028 RU and the “relative binding” value is reported as 0.04. For B6, the “binding per 1RU antibody” value was -0.0002 RU and the “relative binding” value was 0. B7 was tested, and the “binding per 1RU antibody” value was 0.0021 RU and the “relative binding” value was 0.03. For B8, the “binding per 1RU antibody” value was 0.0008 RU and the “relative binding” value was 0.01. In the case of B9, the “binding per 1RU antibody” value is reported as 0.0003 RU and the “relative binding” value is reported as 0.

What follows are binders tested against T3, human FcgRIIb extracellular domain (human, UniProt P31994 43-217) (assay: SPR 25C).
T3 construct: extracellular domain; also called hFcgRIIb
T3 sequence (looked up): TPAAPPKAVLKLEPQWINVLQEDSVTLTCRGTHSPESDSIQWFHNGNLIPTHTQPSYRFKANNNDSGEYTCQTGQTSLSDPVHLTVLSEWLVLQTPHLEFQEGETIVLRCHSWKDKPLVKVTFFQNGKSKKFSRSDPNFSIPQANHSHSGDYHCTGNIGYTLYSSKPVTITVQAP
B4 was tested, and the “binding per 1RU antibody” value was 0.0345 RU and the “relative binding” value was 3.15. B5 was tested, and the “binding per 1RU antibody” value was 0.0291 RU and the “relative binding” value was 2.66. With B6 the “binding per 1RU antibody” value was 0.109 RU and the “relative binding” value was 9.94. With B7 the “binding per 1RU antibody” value was 0.0358 RU and the “relative binding” value was 3.27. B8 was tested, and the “binding per 1RU antibody” value was 0.0472 RU and the “relative binding” value was 4.31. With B9 the “binding per 1RU antibody” value was 0.0805 RU and the “relative binding” value was 7.34.

The binders below were run against T4, human FcgRIIa type H extracellular domain (human, UniProt P12318 34-217) (assay: SPR 25C).
T4 construct: extracellular domain; also called hFcgRIIaH
T4 sequence (looked up): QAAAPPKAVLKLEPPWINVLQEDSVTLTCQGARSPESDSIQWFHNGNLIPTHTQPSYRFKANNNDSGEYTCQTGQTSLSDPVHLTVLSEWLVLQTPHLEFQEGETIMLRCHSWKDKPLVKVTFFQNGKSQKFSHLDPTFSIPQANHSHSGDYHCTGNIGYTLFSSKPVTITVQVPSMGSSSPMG
With B4 the “binding per 1RU antibody” value was 0.0365 RU and the “relative binding” value was 0.64. With B5 the “binding per 1RU antibody” value was 0.0332 RU and the “relative binding” value was 0.59. B6 was tested, and the “binding per 1RU antibody” value was 0.0126 RU and the “relative binding” value was 0.22. With B7 the “binding per 1RU antibody” value was 0.0502 RU and the “relative binding” value was 0.88. B8 was tested, and the “binding per 1RU antibody” value was 0.0463 RU and the “relative binding” value was 0.82. In the case of B9, the “binding per 1RU antibody” value is reported as 0.0042 RU and the “relative binding” value is reported as 0.07.

Each binder was assayed against T5, human FcgRIIa type R extracellular domain (human, UniProt P12318 34-217) (assay: SPR 25C).
T5 construct: extracellular domain; also called hFcgRIIaR
T5 sequence (looked up): T4 sequence (looked up) with H134R
With B4 the “binding per 1RU antibody” value was 0.0364 RU and the “relative binding” value was 0.79. For B5, the “binding per 1RU antibody” value was 0.0319 RU and the “relative binding” value was 0.69. In the case of B6, the “binding per 1RU antibody” value is reported as 0.0359 RU and the “relative binding” value is reported as 0.77. In the case of B7, the “binding per 1RU antibody” value is reported as 0.0319 RU and the “relative binding” value is reported as 0.69. In the case of B8, the “binding per 1RU antibody” value is reported as 0.0459 RU and the “relative binding” value is reported as 0.99. In the case of B9, the “binding per 1RU antibody” value is reported as 0.0067 RU and the “relative binding” value is reported as 0.14.

Each binder was assayed against T6, human FcgRIIIa F158 extracellular domain (human, UniProt P08637 17-208) (assay: SPR 25C).
T6 construct: extracellular domain; also called hFcgRIIIaF
T6 sequence (P08637 17-208): as the sequence (P08637 17-208 F176V) above, with V160F counted along it
With B4 the “binding per 1RU antibody” value was -0.0003 RU and the “relative binding” value was -0.02. B5 was tested, and the “binding per 1RU antibody” value was 0.0003 RU and the “relative binding” value was 0.01. B6 was tested, and the “binding per 1RU antibody” value was 0.0001 RU and the “relative binding” value was 0. For B7, the “binding per 1RU antibody” value was 0.001 RU and the “relative binding” value was 0.05. B8 was tested, and the “binding per 1RU antibody” value was 0.0011 RU and the “relative binding” value was 0.05. B9 was tested, and the “binding per 1RU antibody” value was 0 RU and the “relative binding” value was 0.

Each binder was assayed against T7, human FcgRIa extracellular domain (human, UniProt P12314 16-292) (assay: SPR 25C).
T7 construct: extracellular domain; also called hFcgRIa
T7 sequence (P12314 16-292): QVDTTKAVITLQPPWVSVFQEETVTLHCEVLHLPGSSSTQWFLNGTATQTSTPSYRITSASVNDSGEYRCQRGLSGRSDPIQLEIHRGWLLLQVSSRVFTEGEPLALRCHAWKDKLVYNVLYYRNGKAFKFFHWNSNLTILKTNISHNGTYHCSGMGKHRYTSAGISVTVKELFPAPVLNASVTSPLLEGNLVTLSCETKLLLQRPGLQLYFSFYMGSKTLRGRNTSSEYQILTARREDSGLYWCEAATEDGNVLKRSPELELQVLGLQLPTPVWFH
In the case of B4, the “binding per 1RU antibody” value is reported as 0.0021 RU and the “relative binding” value is reported as 0.03. For B5, the “binding per 1RU antibody” value was 0.0089 RU and the “relative binding” value was 0.11. With B6 the “binding per 1RU antibody” value was 0.0034 RU and the “relative binding” value was 0.04. B7 was tested, and the “binding per 1RU antibody” value was 0.038 RU and the “relative binding” value was 0.47. B8 was tested, and the “binding per 1RU antibody” value was 0.0021 RU and the “relative binding” value was 0.03. For B9, the “binding per 1RU antibody” value was 0.0045 RU and the “relative binding” value was 0.05.

What follows are binders tested against T1, biotinylated Fc-fused monkey CD137 (assay: ELISA, 1 mM ADP, 2.5 ug/mL).
Set-up: reference not given here
Procedure: as §1
B1 showed an absorbance ratio of 6.9. With B2 the absorbance ratio was 30.2. B3 was tested, and the absorbance ratio was 16.8.

Each binder was assayed against T1, biotinylated Fc-fused monkey CD137 (assay: ELISA, 1 mM ADP, 0.010 ug/mL).
Set-up: reference not given here
Procedure: as §1
B1 showed an absorbance ratio of 0.8. B2 gave an absorbance ratio of 3.8. B3 gave an absorbance ratio of 1.

The binders below were run against human FcRn (human, UniProt P55899 24-290; P61769 21-119) (assay: SPR 25C pH 6.0, steady state).
human FcRn, sequence (P55899 24-290 limits assumed, chain 1 of 2): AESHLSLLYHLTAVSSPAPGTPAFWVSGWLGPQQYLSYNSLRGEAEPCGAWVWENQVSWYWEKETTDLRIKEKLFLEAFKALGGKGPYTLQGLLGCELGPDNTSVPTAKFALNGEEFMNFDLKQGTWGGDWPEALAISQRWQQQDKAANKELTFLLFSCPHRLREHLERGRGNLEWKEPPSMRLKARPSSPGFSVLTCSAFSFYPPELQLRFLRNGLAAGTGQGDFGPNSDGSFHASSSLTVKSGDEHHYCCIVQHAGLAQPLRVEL
human FcRn, sequence (P61769 21-119 limits assumed, chain 2 of 2): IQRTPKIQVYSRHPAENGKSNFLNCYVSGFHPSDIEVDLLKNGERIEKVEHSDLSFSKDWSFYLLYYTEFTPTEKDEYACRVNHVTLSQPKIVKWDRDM
Summary of the method: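 Antibody (~400 RU) captured on anti-Fab-lambda sensor chip, human FcRn injected as analyte.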
In the case of B4, the Kd is reported as 909 nM. With B5 the Kd was 1050 nM. B6 was tested, and the Kd was 1510 nM. B7 gave a Kd of 1030 nM. With B8 the Kd was 1010 nM. For B9, the Kd was 1770 nM.

What follows are binders tested against T1, biotinylated Fc-fused monkey CD137 (assay: ELISA, 1 mM ADP, 10 ug/mL).
Set-up: reference not given here
Procedure: as §1
In the case of B1, the absorbance ratio is reported as 17.9. For B2, the absorbance ratio was 30.5. B3 gave an absorbance ratio of 33.9.
